Values quoted from earlier work, collected in PMC8892085.

Target: TLR4 (Homo sapiens) (UniProt O00206)
Sequence (O00206 24-839): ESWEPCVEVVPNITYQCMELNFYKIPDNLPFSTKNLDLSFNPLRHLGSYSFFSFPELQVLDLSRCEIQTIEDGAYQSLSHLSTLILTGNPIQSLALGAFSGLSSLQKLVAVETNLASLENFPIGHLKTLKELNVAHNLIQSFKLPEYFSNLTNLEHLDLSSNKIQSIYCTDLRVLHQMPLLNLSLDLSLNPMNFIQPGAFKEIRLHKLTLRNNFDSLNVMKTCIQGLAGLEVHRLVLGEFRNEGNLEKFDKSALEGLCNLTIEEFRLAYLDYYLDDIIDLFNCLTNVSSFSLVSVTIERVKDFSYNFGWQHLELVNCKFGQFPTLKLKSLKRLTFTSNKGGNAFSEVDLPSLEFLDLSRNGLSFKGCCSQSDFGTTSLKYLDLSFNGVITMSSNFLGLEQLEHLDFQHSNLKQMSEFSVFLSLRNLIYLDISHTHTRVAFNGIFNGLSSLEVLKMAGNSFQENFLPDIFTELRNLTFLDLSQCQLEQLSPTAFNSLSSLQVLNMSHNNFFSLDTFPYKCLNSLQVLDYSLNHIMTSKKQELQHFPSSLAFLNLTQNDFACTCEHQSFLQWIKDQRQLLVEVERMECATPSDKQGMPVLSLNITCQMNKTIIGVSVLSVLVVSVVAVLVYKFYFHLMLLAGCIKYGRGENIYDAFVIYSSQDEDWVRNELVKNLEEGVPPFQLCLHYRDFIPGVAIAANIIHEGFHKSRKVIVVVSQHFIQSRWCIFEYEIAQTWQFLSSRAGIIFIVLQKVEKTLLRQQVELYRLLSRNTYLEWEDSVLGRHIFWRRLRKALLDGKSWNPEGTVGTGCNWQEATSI

HMGB1, sequence (P09429 whole entry): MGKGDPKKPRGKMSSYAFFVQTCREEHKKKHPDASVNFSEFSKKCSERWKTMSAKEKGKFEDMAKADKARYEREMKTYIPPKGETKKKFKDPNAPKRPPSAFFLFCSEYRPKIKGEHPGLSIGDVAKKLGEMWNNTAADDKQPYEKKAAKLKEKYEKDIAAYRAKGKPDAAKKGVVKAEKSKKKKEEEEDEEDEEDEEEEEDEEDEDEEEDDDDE

Kd: 600 nM
Substance: HMGB1 (from UniProt P09429)
